From paper PMC3175028 (2011) come the findings set out here.

Series [1] has as its target T1, hedKR (Streptomyces griseoruber, UniProt Q67G28). Briefly: steady-state kinetics of reduction. In kind it is biochemical.
The target in series [2] is T1, hedKR. Put plainly: […] Å co-crystal structure. In kind it is binding.
In series [3] the target is T1, hedKR. Put plainly: steady-state inhibition kinetics of trans-1-decalone reduction. In kind it is biochemical.
The test system of another series is O[C@H]1CCCc2ccccc21. Briefly: steady-state kinetics of oxidation, A340. Particulars: NADP+. In kind it is biochemical, Streptomyces griseoruber.

One may read the Km as the substrate concentration at which the rate is half of its maximum. As to `O=C1CCC[C@H]2CCCC[C@H]12` (relative stereo) [trans-1-decalone], the Km on hedKR [1] turned out to be 591 ± 147 µM.

Take `NC(=O)C1=CN([C@@H]2O[C@H](COP(=O)(O)OP(=O)(O)OC[C@H]3O[C@@H](n4cnc5c(N)ncnc54)[C@H](OP(=O)(O)O)[C@@H]3O)[C@@H](O)[C@H]2O)C=CC1` [NADPH]: the “2.4 Å co-crystal structure” value at hedKR [2] is on record as “There is clear electron density for NADPH in each monomer of the crystal structure”.

The Ki is a dissociation constant, usually derived from enzyme kinetics or from competition with a known ligand. A lower Ki goes with higher affinity. At hedKR [3], `O=c1c(O)c(-c2ccc(O)c(O)c2)oc2cc(O)cc(O)c12` [compound 22, quercetin] showed a Ki of around 114 µM.

As a reminder, the kcat is the maximal rate divided by the concentration of active sites. By kcat/Km is commonly meant the turnover number divided by the Michaelis constant. For hedKR (Streptomyces griseoruber; N92L), in the series on O[C@H]1CCCc2ccccc21, the Michaelis-Menten constant (Km) worked out at 4320 ± 521 µM, the catalytic constant (kcat) came to 0.169 ± 0.00653 s⁻¹ and the kcat/Km stood at 39.1 ± 4.96 M⁻¹ s⁻¹.

Turning to hedKR (Streptomyces griseoruber; N92P), in the series on O[C@H]1CCCc2ccccc21, the Km was found to be 14100 ± 1360 µM, the catalytic constant (kcat) stood at 0.0323 ± 0.00166 s⁻¹ and the kcat/Km came to 2.29 ± 0.249 M⁻¹ s⁻¹.
